# In US7026443:
# Like-named read-outs stand apart in the source and are kept apart here.
# Experiments:
# HLA-B*0702 (human) [1] = test: competition with 125I-labeled standard probe peptide for purified HLA, gel filtration; conditions: remark: other sources report otherwise; scale: ratio
# HLA-B*3501 (human) [2] = test: as above; conditions: remark: other sources report otherwise; scale: ratio
# HLA-B*5101 (human) [3] = test: as above; conditions: remark: other sources report otherwise; scale: ratio
# HLA-B*5301 (human) [4] = test: as above; conditions: remark: other sources report otherwise; scale: ratio
# HLA-B*5401 (human) [5] = test: as above; conditions: remark: other sources report otherwise; scale: ratio
# HLA-A*0301 (human) [6] = test: competition with 125I-labelled standard peptide for purified HLA, gel filtration
# HLA-A*1101 (human) [7] = test: as above
# HLA-A*3301 (human) = test: as above
# HLA-A*6801 (human) = test: as above
# [8] = biological target: HLA-A*0201 (purified HLA class I molecule) (human)
# [9] = biological target: HLA-A*1101 (purified HLA class I molecule) (human); test: competition with 125I-labelled standard peptide for purified HLA-A*1101, gel filtration
# HLA-A*2402 (human) [10] = test: competition with 125I-labelled standard peptide for purified HLA, gel filtration
# HLA-A*0301 (human) [11] = test: competition with 125I-labeled standard peptide for purified HLA-A*0301, gel filtration
# HLA-A*2402 (human) [12] = test: competition with 125I-labelled standard probe peptide for purified HLA-A*2402, gel filtration; conditions: remark: other sources report otherwise
# HLA-A*0101 (human) = test: competition with 125I-labelled standard peptide 944.02 ([..]) for purified HLA-A*0101, gel filtration; conditions: remark: other sources report otherwise
# HLA-B*0702 (human) [13] = test: competition with 125I-labeled standard peptide for purified HLA, gel filtration
# HLA-B*3501 (human) [14] = test: as above
# HLA-B*5101 (human) [15] = test: as above
# HLA-B*5301 (human) [16] = test: as above
# HLA-B*5401 (human) [17] = test: as above
# HLA-A*0301 (human) [18] = test: as above
# HLA-A*1101 (human) [19] = test: as above
# HLA-A*0301 (human) [20] = test: competition with 125I-labeled standard probe peptide for purified HLA-A*0301, gel filtration
# HLA-A*0301 (human) [21] = test: competitive inhibition of 125I-labelled standard peptide binding to purified HLA-A*0301, gel filtration; conditions: remark: other sources report otherwise
# HLA-B*0702 (human) [22] = biological target: HLA-B*0702 (human)
# HLA-B*3501 (human) [23] = biological target: HLA-B*3501 (human)
# HLA-B*5301 (human) [24] = biological target: HLA-B*5301 (human)
binder,measurement,setting,value
TPTLHEYML (modifications not checked) [HPV16 E7 5 …],relative binding ratio,HLA-B*0702 (human) [1],0.11
same,relative binding ratio,HLA-B*3501 (human) [2],0.0001
same,relative binding ratio,HLA-B*5101 (human) [3],0.0001
same,relative binding ratio,HLA-B*5301 (human) [4],0.0001
same,relative binding ratio,HLA-B*5401 (human) [5],0.0002
TTLEQQYNK (modifications not checked) [HPV16 E6 peptide …],binding affinity ratio (IC50 of standard peptide / IC50 of test peptide),HLA-A*0301 (human) [6],0.01
same,binding affinity ratio (IC50 of standard peptide / IC50 of test peptide),HLA-A*1101 (human) [7],0.29
same,binding affinity ratio (IC50 of standard peptide / IC50 of test peptide),HLA-A*3301 (human),0.066
same,binding affinity ratio (IC50 of standard peptide / IC50 of test peptide),HLA-A*6801 (human),0.3
"VMFLRYQGV (modifications not checked) [HPV16 E1 peptide … (position 443, 9 amino acids)]",relative binding ratio (IC50 of standard peptide / IC50 of test peptide) (ratio to standard peptide),[8],0.014
RFEDPTRRPY (modifications not checked) [HPV18 E6 3-12 peptide …],relative binding ratio (IC50 of standard peptide / IC50 of test peptide),[9],0.0002
"YLVSPLSDI (modifications not checked) [HPV16 E1 peptide … (position 90, 9 amino acids)]",relative binding ratio (IC50 of standard peptide / IC50 of test peptide) (ratio to standard peptide),[8],0.02
"VFEFAFKDLF (modifications not checked) [HPV18 E6 position 44, 10-mer …]",binding affinity ratio (IC50 of standard peptide / IC50 of test peptide),HLA-A*2402 (human) [10],0.036
CMCCKCEARIK (modifications not checked) [HPV18 E7 63-73 peptide …],relative binding ratio (IC50 of standard peptide / IC50 of test peptide),HLA-A*0301 (human) [11],0.0014
same,relative binding ratio (IC50 of standard peptide / IC50 of test peptide),[9],0.0002
"CMCCKCEARI (modifications not checked) [HPV18 E7 position 63, 10-mer …]",binding affinity ratio (IC50 of standard peptide / IC50 of test peptide),HLA-A*2402 (human) [10],0.0001
IVYRDGNPY (modifications not checked) [HPV16 E6 59 …],relative binding ratio (IC50 of standard peptide / IC50 of test peptide),HLA-A*2402 (human) [12],0.0001
same,binding affinity ratio (IC50 of standard peptide / IC50 of test peptide),HLA-A*0101 (human),0.0018
WPYLHNRLV (modifications not checked) [HPV16 E1 576 …],binding affinity ratio (IC50 of standard peptide / IC50 of test peptide),HLA-B*0702 (human) [13],0.052
same,binding affinity ratio (IC50 of standard peptide / IC50 of test peptide),HLA-B*3501 (human) [14],0.0003
same,binding affinity ratio (IC50 of standard peptide / IC50 of test peptide),HLA-B*5101 (human) [15],0.11
same,binding affinity ratio (IC50 of standard peptide / IC50 of test peptide),HLA-B*5301 (human) [16],0.0002
same,binding affinity ratio (IC50 of standard peptide / IC50 of test peptide),HLA-B*5401 (human) [17],0.18
"NINAGTDSR (modifications not checked) [HPV16 E1 peptide … (position 567, 9 amino acids)]",relative binding ratio (IC50 of standard peptide / IC50 of test peptide),HLA-A*0301 (human) [18],0.0005
same,relative binding ratio (IC50 of standard peptide / IC50 of test peptide),HLA-A*1101 (human) [19],0.0002
same,binding affinity ratio (IC50 of the standard peptide / IC50 of the test peptide),HLA-A*0301 (human) [20],0.0005
RARQERLQR (modifications not checked) [HPV18 E6 144-152 peptide …],relative binding ratio (IC50 of standard peptide / IC50 of test peptide),[9],0.0002
DPQERPRKL (modifications not checked) [HPV16 E6 11 …],binding affinity ratio (IC50 of standard peptide / IC50 of test peptide),HLA-B*0702 (human) [13],0.0001
same,binding affinity ratio (IC50 of standard peptide / IC50 of test peptide),HLA-B*3501 (human) [14],0.0001
same,binding affinity ratio (IC50 of standard peptide / IC50 of test peptide),HLA-B*5101 (human) [15],0.0001
same,binding affinity ratio (IC50 of standard peptide / IC50 of test peptide),HLA-B*5301 (human) [16],0.0001
same,binding affinity ratio (IC50 of standard peptide / IC50 of test peptide),HLA-B*5401 (human) [17],0.0002
ETTDLYCY (modifications not checked) [HPV16 E7 18 ETTDLYCY],relative binding ratio (IC50 of standard peptide / IC50 of test peptide),HLA-A*2402 (human) [12],0.0001
same,binding affinity ratio (IC50 of standard peptide / IC50 of test peptide),HLA-A*0101 (human),0.078
same,relative binding ratio (IC50 of standard peptide / IC50 of test peptide) (ratio to standard peptide),HLA-A*0301 (human) [21],0.0002
"VYCKTVLEL (modifications not checked) [HPV18 E6 position 33, 9-mer …]",binding affinity ratio (IC50 of standard peptide / IC50 of test peptide),HLA-A*2402 (human) [10],0.022
RPIVQFLRY (modifications not checked) [HPV18 E1 447 peptide …],binding affinity ratio (IC50 of standard peptide / IC50 of test peptide),HLA-B*0702 (human) [22],0.0033
same,binding affinity ratio (IC50 of standard peptide / IC50 of test peptide),HLA-B*3501 (human) [23],0.04
same,binding affinity ratio (IC50 of standard peptide / IC50 of test peptide),HLA-B*5301 (human) [24],0.023
